7 molecules from patent CN115028722A (BIOCELLS BEIJING BIOTECH CO LTD, dated 2022) can be followed below.

A word on the EC50: it is the concentration at which the effect is half-maximal. The IC50 is the point on the concentration scale where inhibition reaches its midpoint.

Experiment [1] concerns the target T1, 包含有His标签的重组人源TSLP蛋白(rhTSLP-His) (human).
T1 construct: also called rhTSLP-His重组蛋白; rhTSLP-His蛋白
The experiment is described as follows: ELISA as in Example 6, rhTSLP-His coated. A general note: In an ELISA, binding on a coated surface is turned into a signal by an enzyme label.

The target of experiment [2] is T1, 包含有His标签的重组人源TSLP蛋白(rhTSLP-His). The experiment is described as follows: cell ELISA: antibody blocks binding of rhTSLP-His to hTSLPR/hIL-7Rα-293T/17 cells.
For experiment [3] the target is unchanged. The experiment is described as follows: ELISA, rhTSLP-His coated at 100 ng/well.
For experiment [4] the target is unchanged. Kind of experiment: cell ELISA: antibody blocks binding of 100 ng rhTSLP-His to hTSLPR/hIL-7Rα-293T/17 cells.

B1: 抗TSLP人源化单克隆抗体M432-69H13L (antibody, human IgG2, lambda, V domains shown)
VH: EVQLVQSGAEVKKPGATVKISCCASAYSFTTYWMHWVQQAPGKGLEWMGLIDPSDSETTLNQKFKDRVTLTVDKSTDTAYMELSSLRSEDTAVYYCARSLDGYFDYWGQGTTVTVSS
VL: DIQLTQSPSSLSASVGDRVTITCRAGENIYSYLAWYQQKPGKAPKLLVYNAKILAEGVPSRFSGSGSGTDFTLTISSLQPEDFATYYCQHHYDTPWTFGGGTKLTVLG
In experiment [1], B1 came in with an EC50 of 4.05 nM. In experiment [2], this molecule showed an IC50 of 4.35 µg/mL.

B2: 抗TSLP人源化单克隆抗体9F8-46H13L (antibody, human IgG2, lambda, V domains shown)
VH: QVQLVQSGAEVKKPGASVKVSCCASGYSFTTYWMHWVRQAPGQGLEWMGIIDPSDSETTLNQKFKDRVTLTVDKSTSTAYMELSSLRSEDTAVYYCTRSLDGYFDYWGQGTTVTVSS
VL: DIQLTQSPSSLSASVGDRVTITCRAGENIYSYLAWYQQKPGKAPKLLVYNAKILAEGVPSRFSGSGSGTDFTLTISSLQPEDFATYYCQHHYDTPWTFGGGTKLTVLG
As to B2, in experiment [1], a half-maximal effect (EC50) was put at 9.52 nM. In addition, in experiment [2], the IC50 worked out at 4.05 µg/mL.

B3: 抗TSLP人源化单克隆抗体5F10-69H13L (antibody, human IgG2, lambda, V domains shown)
VH: EVQLVQSGAEVKKPGATVKISCCASGYSFTSYWMHWVQQAPGKGLEWMGLIDPTDSEISLSQKFKDRVTLTVDKSTDTAYMELSSLRSEDTAVYYCARSLDGFFDQWGQGTTVTVSS
VL: DIQLTQSPSSLSASVGDRVTITCRAGENIYSYLAWYQQKPGKAPKLLVYNAKILAEGVPSRFSGSGSGTDFTLTISSLQPEDFATYYCQHHYDTPWTFGGGTKLTVLG
For the molecule B3, the EC50 in experiment [1] stood at 31.6 nM. In experiment [2], this molecule displayed an IC50 of 7.57 µg/mL.

B4: 鼠源抗TSLP单克隆抗体10D9-M-432 (antibody, V domains shown)
VH: VNCKESGPQLVRPGASVKISCKASAYSFTTYWMHWVKQRPGQGLEWIGLIDPSDSETTLNQKFKDKATLTVDKSSSTAYMQLTSPTSEDSAVYYCARSLDGYFDYWGQGTTVTVSS
VL: DIDLTQSPASLSASVGETVTITCRAGENIYSYLAWYQQKQGKSPQLLVYNAKILAESVPSRFSGSGSGTQFSLKINSLQPEDFGIYSCQHHYDTPWTFGGGTKLE
notes: Mouse hybridoma monoclonal antibody
Take B4: the EC50 in experiment [3] was 8.16 nM. The molecule also displayed an IC50 in experiment [4] of 12 µg/mL.

B5: 鼠源抗TSLP单克隆抗体9F8-1-25 (antibody, V domains shown)
VH: VQLQQSGPQLVRPGASVKISCKASGYSFTTYWMHWVKQRPGQGLEWIGIIDPSDSETTLNQKFKDKATLTVDKSSSTAYIQLSSPTSEDSAVYYCTRSLDGYFDYWGQGTTVTV
VL: DIDLTQSPASLSASVGETVTITCRAGENIYSYLAWYQQKQGKSPQLLVYNAKILAESVPSRFSGSGSGTQFSLKINSLQPEDFGIYSCQHHYDTPWTFGGGTKLE
notes: as for B4
Molecule B5 gave an EC50 in experiment [3] of 11.4 nM. In experiment [4], this molecule returned an IC50 of 10.7 µg/mL.

B6: 鼠源抗TSLP单克隆抗体5F10-2-25 (antibody, V domains shown)
VH: ELQQSGPQLVRPGASVKISCKASGYSFTSYWMHWVKQRPGQGLEWIGLIDPTDSEISLSQKFKDKATLTVDKLSSTAHMQLSSPTSEDSAVYYCARSLDGFFDQWGQGTTVTV
VL: DIDLTQSPASLSASVGETVTITCRTSENIYSYLAWYQQKQGKSPQLLVYNAKSLAEGVPSRFSGSGSGTQFSLKINSLQPEDFGSYYCQHHYDTPWTFGGGTKLENKT
notes: as for B4
In experiment [3], B6 came in with an EC50 of 12.4 nM. The IC50 in experiment [4] amounted to 13.4 µg/mL.

B7: Tezepelumab(安进和阿斯利康合作开发抗体) (antibody, V domains shown)
VH: QMQLVESGGGVVQPGRSLRLSCAASGFTFRTYGMHWVRQAPGKGLEWVAVIWYDGSNKHYADSVKGRFTITRDNSKNTLNLQMNSLRAEDTAVYYCARAPQWELVHEAFDIWGQGTMVTVSS
VL: SYVLTQPPSVSVAPGQTARITCGGNNLGSKSVHWYQQKPGQAPVLVVYDDSDRPSWIPERFSGSNSGNTATLTISRGEAGDEADYYCQVWDSSSDHVVFGGGTKLTVLG
On to B7, for which the EC50 was 1.8 nM in experiment [1] and 2.93 nM in experiment [3]. Also, the results for the IC50 in experiment [4] and in experiment [2] were 6.22 µg/mL and 8.93 µg/mL, respectively.
